What was measured:
GST-fused DOR C-tail = assay: GST-pull down, DOR C-tail; type: binding; conditions: percent of full-length GASP-1 interaction; three independent experiments
Summary of the method: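 Phosphorimager quantification of [35S]-labelled GASP retained on GST-fused receptor C-tails after SDS-PAGE. Binding: glutathione-bead-bound fusions plus in vitro translated GASP, 1 h at 4°C, pH 7.4 Tris/NaCl/EDTA/DTT buffer with 1% Triton X-100. Means of at least three independent experiments.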

[1] = test system: GFP-tagged M1 receptor in HEK293 cells; assay: Co-immunoprecipitation, M1; type: cell-based; conditions: 48 h expression, anti-GFP immunoprecipitation
Protocol: (§1) HEK293 cells stably expressing N-terminal GFP-tagged ADRB1, ADRB2, CALCR and M1 or MyrPalm-mYFP were transfected with pcDNA3.1 containing the sequence for a central domain of GASP-1 (AA 380 to 1073) using JetPEI reagent (polyplus transfection) according to the instructions from the manufacturer. After 48 h of expression, cells were washed twice with PBS and lysed in a buffer containing 10 mM Tris-HCl, pH 7.4, 150 mM NaCl, 25 mM KCl, 0.3% Triton X-100 and cOmplete protease inhibitors (Roche) for 1 h at 4°C under agitation. 500 µg of cleared lysates were incubated with 1 µg of a mouse monoclonal anti-GFP antibody (Invitrogen) overnight at 4°C, followed by an incubation with 40 µl of protein A-Sepharose beads for an additional 2 h at 4°C. Beads were then washed five times in lysis buffer and precipitates were resolved on an 8% gel by SDS–PAGE and electrotransferred to immobilon-P membranes (Millipore) in 50 mM Tris-boric acid for 1 h at 300 mA. Membranes were blocked with 5% non-fat powder milk in TBS-Tween (50 mM Tris-HCl pH 8, 150 mM NaCl, 0.4% Tween-20) for 1 h at room temperature. […] For immunodetection of GASP or GFP-tagged receptors directly from cell lysates, 10 µg of proteins were loaded on SDS gels and analyzed following the procedure described above. Finally, membranes were washed in TBS-Tween and detected by chemiluminescence (ECL prime, GE Healthcare). […]

[2] = test system: MyrPalm-mYFP in HEK293 cells; assay: Co-immunoprecipitation, MyrPalm-mYFP (negative control); type: cell-based; conditions: 48 h expression, anti-GFP immunoprecipitation
Protocol: as §1

[3] = test system: GFP-tagged ADRB1 in HEK293 cells; assay: Co-immunoprecipitation, ADRB1; type: cell-based; conditions: 48 h expression, anti-GFP immunoprecipitation
Protocol: as §1

[4] = test system: GFP-tagged CALCR in HEK293 cells; assay: Co-immunoprecipitation, CALCR; type: cell-based; conditions: 48 h expression, anti-GFP immunoprecipitation
Protocol: as §1

GST-fused CNR2 C-tail = assay: GST-pull down, CNR2 C-tail; type: binding; conditions: central domain compared to full-length GASP-1
Protocol: cDNAs encoding the cytoplasmic C-tail of 14 GPCRs and 2 one-transmembrane receptors were cloned into the pGEX-2T prokaryotic expression vector downstream the GST sequence. […]
GST-fusion proteins were immobilized on glutathione-coupled Sepharose beads (GE Healthcare) for 1 h at 4°C and incubated with [^35S]-labelled in vitro translated GASP proteins or their truncated or mutated forms in ice-cold binding buffer containing: 20 mM Tris-HCl pH 7.4, 150 mM NaCl, 1 mM EDTA, 1 mM DTT, 10% glycerol and 1% Triton X-100. […] The supernatants were then analyzed by SDS-PAGE, the gels were stained with Coomassie blue to visualize GST-fusion proteins, dried and analyzed using a Phosphor-imager (Personal Molecular Imager FX, Biorad) to visualize [^35S]-labelled GASPs. Quantification was performed with the Quantity One software (Biorad). GST-pull down quantification data were analyzed using GraphPad Prism 4.03 (GraphPad Software). Quantifications presented are means of at least three independent experiments.

B1: central domain of GASP-1: central portion of GASP-1 (AA 380 to 1073) that contains 19 GASP motif (protein)
chain: MTKEEAKTKARARAKQEARSEEEALIGTWFWATDESSMADEASIESSLQVEDESIIGSWFWTEEEASMGTGASSKSRPRTDGERIGDSLFGAREKTSMKTGAEATSESILAADDEQVIIGSWFWAGEEVNQEAEEETIFGSWFWVIDAASVESGVGVSCESRTRSEEEEVIGPWFWSGEQVDIEAGIGEEARPGAEEETIFGSWFWAENQTYMDCRAETSCDTMQGAEEEEPIIGSWFWTRVEACVEGDVNSKSSLEDKEEAMIPCFGAKEEVSMKHGTGVRCRFMAGAEETNNKSCFWAEKEPCMYPAGGGSWKSRPEEEEDIVNSWFWSRKYTKPEAIIGSWLWATEESNIDGTGEKAKLLTEEETIINSWFWKEDEAISEATDREESRPEAEEGDIIGSWFWAGEEDRLEPAAETREEDRLAAEKEGIVGSWFGAREETIRREAGSCSKSSPKAEEEEVIIGSWFWEEEASPEAVAGVGFESKPGTEEEEITVGSWFWPEEEASIQAGSQAVEEMESETEEETIFGSWFWDGKEVSEEAGPCCVSKPEDDEEMIVESWFWSRDKAIKETGTVATCESKPENEEGAIVGSWFEAEDEVDNRTDNGSNCGSRTLADEDEAIVGSWFWAGDEAHFESNPSPVFRAICRSTCSVEQEPDPSRRPQSWEEVTVQFKPGPWGRVGFPSISPFRFPKE
modifications: left off: GST, N-terminal, kept
notes: central portion of GASP-1 (AA 380 to 1073) that contains 19 GASP motif
Question: How did the “interaction with DOR C-tail relative to full-length GASP-1” value (GST-fused DOR C-tail) turn out when B1 was run?
Answer: ~30%

Question: What about the “co-immunoprecipitation with M1” value [1] of the same molecule?
Answer: co-immunoprecipitated

Question: And the “co-immunoprecipitation with MyrPalm-mYFP” value [2]?
Answer: no co-immunoprecipation was observed

Question: What about the “co-immunoprecipitation with ADRB1” value [3] of the same molecule?
Answer: co-immunoprecipitated

Question: And the “co-immunoprecipitation with CALCR” value [4]?
Answer: co-immunoprecipitated

Question: What about the “interaction with CNR2 C-tail” value (GST-fused CNR2 C-tail) of the same molecule?
Answer: mandatory and sufficient for this interaction

From publication PMC3575409, “Identification of a Novel Protein-Protein Interaction Motif Mediating Interaction of GPCR-Associated Sorting Proteins with G Protein-Coupled Receptors” (PLoS ONE, 2013)
